Reference: patent publication US6383734

T1: Raf-1 (331-345) peptide
T1 chain: RPRGQRDSSFFWEIE


Key:
[1] = biological target: Raf-CR3 (wild type), recombinant Raf-1 catalytic fragment, calmodulin binding protein fusion, P04049
[2] = biological target: Raf-CR3[D338E339], P04049
[3] = biological target: Raf-CR3[A338A339], P04049
Raf-1 (331-345) peptide = biological target: T1, Raf-1 (331-345) peptide

Protein	phosphate incorporation into Raf-CR3 [1]	phosphate incorporation into Raf-CR3 [2]	phosphate incorporation into Raf-CR3 [3]	phosphorylation of the Raf-1 peptide (Raf-1 (331-345) peptide)	phosphorylation of Raf-CR3 [1]
full-length PAK3 from rat spleen lysate (protein) SDNGELEDKPPAPPVRMSSTIFSTGGKDPLSANHSLKPLPSVPEEKKPRNKIISIFSSTEKGSKKKEKERPEISPPSDFEHTIHVGFDAVTGEFTGMPEQWARLLQTSNITKLEQKKNPQAVLDVLKFYDSNTVKQKYLSFTPPEKDGFPSGTPALNTKGSETSAVVTEEDDDDEDAAPPVIAPRPDHTKSIYTRSVIDPIPAPVGDSNVDSGAKSSDKQKKKAKMTDEEIMEKLRTIVSIGDPKKKYTRYEKIGQGASGTVFTATDVALGQEVAIKQINLQKQPKKELIINEILVMKELKNPNIVNFLDSYLVGDELFVVMEYLAGGSLTDVVTETCMDEAQIAAVCRECLQALEFLHANQVIHRDIKSDNVLLGMEGSVKLTDFGFCAQITPEQSKRSTMVGTPYWMAPEVVTRKAYGPKVDIWSLGIMAIEMVEGEPPYLNENPLRALYLIATNGTPELQNPEKLSPIFRDFLNRCLEMDVEKRGSAKELLQHPFLKLAKPLSSLTPLILAAKEAMKSNR	4-fold more phosphate into wild type Raf-CR3 than into the non-phosphorylatable Raf-CR3[D338E339] or Raf-CR3[A338A339] site mutants	reduced ability of immunoprecipitated PAK3 to phosphorylate the Raf-CR3[A338,A339] or Raf-CR3[D338,E339] mutant proteins	reduced ability of immunoprecipitated PAK3 to phosphorylate the Raf-CR3[A338,A339] or Raf-CR3[D338,E339] mutant proteins		
recombinant His-tagged mouse PAK3 from Sf9 cells (protein) MSDSLDNEEKPPAPPLRMNSNNRDSSALNHSSKPLPMAPEEKNKKARLRSIFPGGGDKTNKKKEKERPEISLPSDFEHTIHVGFDAVTGEFTGIPEQWARLLQTSNITKLEQKKNPQAVLDVLKFYDSKETVNNQKYMSFTSGDKSAHGYIAAHQSNTKTASEPPLAPPVSEEEDEEEEEEEDDNEPPPVIAPRPEHTKSIYTRSVVESIASPAAPNKEDIPPSAENANSTTLYRNTDRQRKKSKMTDEEILEKLRSIVSVGDPKKKYTRFEKIGQGASGTVYTALDIATGQEVAIKQMNLQQQPKKELIINEILVMRENKNPNIVNYLDSYLVGDELWVVMEYLAGGSLTDVVTETCMDEGQIAAVCRECLQALDFLHSNQVIHRDIKSDNILLGMDGSVKLTDFGFCAQITPEQSKRSTMVGTPYWMAPEVVTRKAYGPKVDIWSLGIMAIEMVEGEPPYLNENPLRALYLIATNGTPELQNPERLSAVFRDFLNRCLEMDVDRRGSAKELLQHPFLKLAKPLSSLTPLIIAAKEAIKNSSR				Recombinant His-tagged mouse PAK3 from Sf9 cells phosphorylated the Raf-1 peptide	strongly phosphorylated wild type Raf-CR3
